Experimental data from article PMC10934782, “Electrochemical Sensors Based on Self-Assembling Peptide/Carbon Nanotube Nanocomposites for Sensitive Detection of Bisphenol A” (Sensors (Basel, Switzerland), 2024).

Molecular target: the molecule itself
Assay: negative-stain TEM + turbidity + circular dichroism + rheology; Z23 alone (no MWCNTs) in PBS, assembly triggered by adding 10x PBS to the aqueous peptide solution; room temperature (rheology 1 wt% in PBS at 25 °C); turbidity at 313 nm

B1: cationic amphiphilic self-assembling peptide (SAP) Z23 (peptide)
peptide: Ac-KFKFQFKFK-NH2
notes: Designed self-assembling peptide; forms nanofibers and a hydrogel in PBS; source: synthetic peptide; bought: Shanghai Top-peptide Biotechnology Co. Ltd. (purity > 95%)
- binding result: binds
